Assay results reported in article PMC3901395, “Multivalent interactions of the SUMO-interaction motifs in RING finger protein 4 determine the specificity for chains of the SUMO” (Biochemical Journal, 2013).

What was measured:
PML-NBs in HeLa cells = experiment: Disruption of PML-NBs by overexpression of RNF4 in HeLa cells; assay type: cell-based; details: HeLa cells transfected with HA-tagged full-length RNF4; automatic image analysis, 30 to 60 cells per condition; GFP control plasmid 12 PML-NBs, untreated average 15
Protocol: HeLa B-cells were grown on coverslips and fixed in PBS with 3% paraformaldehyde. After permeabilization in PBS with 0.2% saponin (Sigma–Aldrich), cells were blocked in PBS, 3% BSA and 0.2% saponin. Primary and Alexa Fluor®-labelled secondary antibodies (Invitrogen) were applied in blocking buffer. Coverslips were embedded in ProLong® Gold Antifade (Invitrogen) and examined using a Zeiss Axioplan2 fluorescence microscope. Proteins and epitope tags were detected with the following antibodies against PML (A167 and A168; Bethyl), HA (haemagglutinin) (3F10; Roche, 16B12; Covance) and CDC11 (SC-7170; Santa Cruz Biotechnology). The secondary antibodies were labelled with Alexa Fluor® 546, Alexa Fluor® 647 or Alexa Fluor® 670 (Invitrogen), or IRDye800 (Rockland). For quantification of PML-NBs, cells were acquired using a Zeiss Meta 510 Confocal microscope, 63× objective NA (numerical aperture) 1.4 and appropriate laser and filter settings. Z-stacks were taken according to Nyquist criteria. Microscopic pictures were analysed with Volocity 6.2 Cellular Imaging & Analysis Software (PerkinElmer). Transfected cells were automatically identified within the 546 nm channel and the amount of PML-NBs (647 nm channel) that were localized within the nuclei of transfected cells were automatically counted.

(SUMO2)4–GFP–HA2 = experiment: Pulse–chase analysis of (SUMO2)4–GFP–HA2 turnover in yeast; assay type: cell-based, S. cerevisiae; details: 2 min pulse labelling with [35S]methionine, anti-HA immunoprecipitation, phosphorimaging
Text: To correlate the strength of the interaction of RNF4 and its SIM mutants with poly-SUMOs to the activity of RNF4 in living cells, we made use of our previous findings that RNF4 is functional in yeast and disrupts PML-NBs in mammalian cells. We therefore co-expressed combinations of full-length wt RNF4 or its SIM mutants with poly-SUMO chains that retained the native N-terminus on the first SUMO moiety and were C-terminally tagged with GFP–HA in S. cerevisiae. As shown in Figures 3(A)–3(C), the poly-SUMO–GFP–HA reporter constructs were efficiently targeted for degradation. Compared with the control transformants not expressing RNF4, the levels of di-SUMO2 were reduced to approximately 55%, and this effect was enhanced if the chain was composed of three or four SUMOs (45% and 43% of control levels respectively). […]
Concentrated di-SUMO2-/Delta1N11 (10 mg/ml) in crystallization […] buffer was used for crystallization experiments by hanging-drop […] vapour diffusion. Crystals grew in a solution of 0.1 M Tris/HCl, […] pH 8.0, 28 % PEG 350 MME (Qiagen) and 0.05 % dioxane within […] 2–4 days at room temperature (21 ◦ C). […]

B1: RNF4 FL: full-length human RNF4 (RING finger protein 4); FLAG-tagged in yeast, HA-tagged in HeLa cells (protein)
chain: MSTRKRRGGAINSRQAQKRTREATSTPEISLEAEPIELVETAGDEIVDLTCESLEPVVVDLTHNDSVVIVDERRRPRRNARRLPQDHADSCVVSSDDEELSRDRDVYVTTHTPRNARDEGATGLRPSGTVSCPICMDGYSEIVQNGRLIVSTECGHVFCSQCLRDSLKNANTCPTCRKKINHKRYHPIYI
modifications: left off: GST, end not stated, cleaved
notes: full-length human RNF4 (RING finger protein 4); FLAG-tagged in yeast, HA-tagged in HeLa cells
PML-NBs in HeLa cells
  number of PML-NBs after transfection: approximately five
(SUMO2)4–GFP–HA2
  turnover of linear tetra-SUMO2 reporter, pulse–chase: degraded upon coexpression of RNF4
